Laboratory results from patent publication US20100260769A1 (MORPHOTEK, published 2010).

B1: rabbit anti-human endosialin monoclonal antibody 1-55-2 (antibody, V domains shown)
VH: QQQLMESGGDLVKPEGSLTLTCTASGFSFSSSYWGCWVRQAPGKGPEWIACIYGGSSGTTYYPNWAKGRFSISKTSSTTVTLQMASLTAADTATYFCARVTNGGDWDFKLWGPGTLVTVSS
VL: ELVMTQTPASVEVAVGGTVTIKCQASQSINTYLAWYQQKPGQPPKLLIYRASTLASGVPSRFKGSGSGTEFTLTISDLECADAATYYCQQSVRVIDVDNTFGGGTEVVVK
notes: Rabbit IgG from a hybridoma, kappa light chain; rabbit constant regions are not; also called hybridoma 1-55-2 (ATCC PTA-9652)
B2: rabbit anti-human endosialin monoclonal antibody 1-3-1 (antibody, V domains shown)
VH: AQSVEESGGDLVRPGASLTLTCSASGFTINRNYWICWVRQAPGRGPEWIACIYGGSSGTTYYTNWAKGRFTISKAASTTVTLQMTSLTVADTATYFCARVDNGGDWYFRLWGPGTLVTISS
VL: ELDLTQTPASVEVAVGGTVTIKCQASQSISSYLAWYQQKPGQPPKLLIYRASTLASGVSSRFKGSGSGTEFTLTISGVQCDDAATYYCQQGVRVVDIDNSFGGGTELVVK
B3: rabbit anti-human endosialin monoclonal antibody 1-25-2 (antibody, V domains shown)
VH: AQSLEESGGDLVKPEGSLTLTCTASGFSFSSSYWGCWVRQAPGKGPEWIACIYGGSSGTTYYPNWAKGRFSISKTSSTTVTLQMASLTAADTATYFCARVTNGGDWDFKLWGPGTLVTISS
VL: ELVLTQTPASVEVAVGGTVTIKCQASQTINNYLTWYQQKPGQPPKLLIYRASTLASGVPSRFKGSGSGTEFTLTISDLECADAATYYCQQTVRVVDVDNSFGGGTEVVVK
B4: rabbit anti-mouse endosialin monoclonal antibody clone 8 (antibody, V domains shown)
VH: AQSVEESGGGLVKPEGSLTLSCKASGFSFSNNSYICWVRQAPGKGLEWIACIEFGRGNSHYASWAKGRFTITRSTSLNTVTLQLNSLTAADTATYFCARGSRGVGYGYGLWGPGTLVTISS
VL: ELDMTQTPSPVSAAVGGTVTINCQASQSVYSNSRLSWYQQKPGQPPKQLIYSASTLASGVPSRFKGSGSGTHFTLTLSGVQCDDAATYYCQGEFACSSADCSAFGGGTELEILK
notes: Rabbit IgG from a hybridoma, kappa light chain; rabbit constant regions are not; also called hybridoma clone 8 (ATCC PTA-9651)

Tests used:
[1] = target: T1, full length human TEM1 (endosialin) with a C-terminal V5-His tag, expressed in A431-TEM1 cells / tumor … (human, UniProt Q9HCU0 18-757); assay: IHC on FFPE A431-TEM1 tumor xenograft sections, biotinylated antibody at 20 µg/ml
T1 construct: Target in tissue sections of A431-TEM1 tumor xenografts; also called hTEM1; endosialin/TEM1
T1 sequence: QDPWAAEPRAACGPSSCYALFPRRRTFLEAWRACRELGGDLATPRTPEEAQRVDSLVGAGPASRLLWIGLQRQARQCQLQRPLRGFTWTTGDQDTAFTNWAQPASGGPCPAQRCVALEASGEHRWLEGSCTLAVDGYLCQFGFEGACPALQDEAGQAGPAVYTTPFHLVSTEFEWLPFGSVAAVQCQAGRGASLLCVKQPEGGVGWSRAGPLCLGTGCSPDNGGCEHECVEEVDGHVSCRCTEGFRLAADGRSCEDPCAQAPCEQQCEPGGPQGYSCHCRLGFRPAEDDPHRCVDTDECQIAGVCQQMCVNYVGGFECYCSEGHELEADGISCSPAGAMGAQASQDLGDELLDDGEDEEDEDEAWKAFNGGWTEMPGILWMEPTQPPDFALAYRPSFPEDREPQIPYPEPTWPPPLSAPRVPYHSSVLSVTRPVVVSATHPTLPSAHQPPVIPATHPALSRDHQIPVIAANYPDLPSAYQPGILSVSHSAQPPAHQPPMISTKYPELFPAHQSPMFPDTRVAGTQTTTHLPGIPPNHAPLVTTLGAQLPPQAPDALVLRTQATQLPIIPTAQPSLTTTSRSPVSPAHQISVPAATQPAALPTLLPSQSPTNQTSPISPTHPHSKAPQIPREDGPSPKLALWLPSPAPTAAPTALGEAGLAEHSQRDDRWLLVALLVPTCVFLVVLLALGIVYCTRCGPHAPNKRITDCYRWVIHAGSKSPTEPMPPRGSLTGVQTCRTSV

[2] = target: soluble human endosialin extracellular domain-mouse Fc fusion protein (human; mouse); assay: competition ELISA: hTEM1-Fc (15 µg/mL) preincubated with serial dilutions of antibody, binding to fibronectin-coated plate detected with anti-mouse HRP
[3] = target: T2, mouse TEM1 extracellular domain (ECD)-Fc fusion protein (mouse, UniProt Q91V98 18-695); assay: hybridoma screening ELISA on TEM1-Fc protein, Fc-reactive clones removed by counterscreen
T2 construct: also called mouse TEM1-Fc
T2 sequence: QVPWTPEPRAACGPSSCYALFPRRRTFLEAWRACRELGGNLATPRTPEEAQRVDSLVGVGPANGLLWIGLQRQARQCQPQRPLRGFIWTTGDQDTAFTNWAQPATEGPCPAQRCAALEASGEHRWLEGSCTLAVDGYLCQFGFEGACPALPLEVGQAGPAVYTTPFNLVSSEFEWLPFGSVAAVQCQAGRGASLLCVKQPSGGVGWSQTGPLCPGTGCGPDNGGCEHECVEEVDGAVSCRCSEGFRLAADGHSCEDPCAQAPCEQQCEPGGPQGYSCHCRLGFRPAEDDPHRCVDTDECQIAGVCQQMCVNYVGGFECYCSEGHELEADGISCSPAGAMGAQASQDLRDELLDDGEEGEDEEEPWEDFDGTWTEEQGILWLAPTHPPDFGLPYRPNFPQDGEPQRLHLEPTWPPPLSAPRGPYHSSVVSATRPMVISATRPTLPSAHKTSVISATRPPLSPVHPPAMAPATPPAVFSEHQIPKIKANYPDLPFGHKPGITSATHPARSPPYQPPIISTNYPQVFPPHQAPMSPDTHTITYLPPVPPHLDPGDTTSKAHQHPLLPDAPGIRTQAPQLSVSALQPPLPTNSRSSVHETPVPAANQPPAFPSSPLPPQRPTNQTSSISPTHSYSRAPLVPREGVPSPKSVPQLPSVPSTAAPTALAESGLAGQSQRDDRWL
Protocol: To generate rabbit anti-mouse endosialin (TEM1) antibody clone 8, we immunized two New Zealand white rabbits with four injections of mouse TEM1 extracellular domain (ECD)-Fc fusion protein. Antiserum titer was monitored using standard ELISA (TEM1) and counterscreen ELISA for Fc reactivity. A final IV boost was performed within 4-8 weeks of the last regular injection boost. Splenectomies were performed after the final IV boost. Lymphocytes were isolated from each rabbit spleen. Fusions with 240E-W3 cells (Epitomics) were performed in forty 96-well plates. Standard ELISA screening for 40 plates was performed using TEM1-Fc protein. All positive hybridomas were expanded to 24-well plates and confirmatory standard and differential ELISA were performed. Fc reactive clones were counterscreened and removed, leaving the TEM1-reactive clones. Positive hybridomas were expanded for Ig gene sequencing and generation of purified Ab. One positive hybridoma was assigned the designation clone 8.

Binder	binding result [1]	IC50 [2] [µg/mL]	binding result [3]
B1	binds	69.5	–
B2	–	21.4	–
B3	–	41.5	–
B4	–	–	binds
